The values that follow come from paper PMC4351158 (Structure (London, England : 1993), 2015).

The Kd is the equilibrium constant for the complex coming apart.

Assay in all cases: fluorescence polarisation
Background: Polarisation of emitted light reports the rotation of a fluorescent probe.

Assay [1] has as its target T1, wild-type DegS (residues 27-355, without the membrane anchor) (E. coli, UniProt P0AEE3 27-355).
T1 sequence (looked up): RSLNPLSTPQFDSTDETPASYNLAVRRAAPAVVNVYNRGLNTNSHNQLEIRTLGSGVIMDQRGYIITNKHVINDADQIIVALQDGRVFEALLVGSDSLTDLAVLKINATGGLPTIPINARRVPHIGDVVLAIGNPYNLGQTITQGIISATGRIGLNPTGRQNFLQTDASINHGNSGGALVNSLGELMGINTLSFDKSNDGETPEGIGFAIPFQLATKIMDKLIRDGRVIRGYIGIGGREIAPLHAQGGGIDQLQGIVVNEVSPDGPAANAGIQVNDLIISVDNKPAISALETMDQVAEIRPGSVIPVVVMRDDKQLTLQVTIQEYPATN

The next assay has as its target T2, DegS Q191A/H198P (E. coli, UniProt P0AEE3 27-355, Q191A | H198P).
T2 sequence (looked up): T1 sequence (looked up) with Q165A, H172P

The target in the next assay is T3, DegS Q187A (E. coli, UniProt P0AEE3 27-355, Q187A).
T3 sequence (looked up): T1 sequence (looked up) with Q161A

Another assay deals with T4, DegS F220A (E. coli, UniProt P0AEE3 27-355, F220A).
T4 sequence (looked up): T1 sequence (looked up) with F194A

The next assay addresses T5, DegS P229A (E. coli, UniProt P0AEE3 27-355, P229A).
T5 sequence (looked up): T1 sequence (looked up) with P203A

Where a chain is given by its changes, count along the chain named. Where no end group is shown, it is not given here. fluorescein = fluorescein, a fluorescent label on the peptide N-terminus

In the case of fluorescein-DNRDGNVYYF [fluorescent OMP peptide fluorescein-DNRDGNVYYF], the Kd in assay [1] is 4000 ± 400 nM; with DegS Q191A/H198P it was 1400 ± 100 nM; with DegS Q187A it was 2300 ± 100 nM; in the assay with DegS F220A, 2100 ± 100 nM; with DegS P229A, 1600 ± 200 nM.
